In US20190367631A1 (Regeneron, published 2019):
Positions count from the first letter of the chain named. In names and notes the source's numbering stands. Blank lines part the entries; values can stand above or below the binder they belong to.

Columns and labels:
[1] = biological target: T1, human MSR1 extracellular domain expressed with a N-terminal nonahistidine tag (human, UniProt P21757 77-451); assay: competition ELISA, plate-coated His9-hMSR1; 100 nM antibody, competitor ligand Ac-LDL
T1 construct: extracellular domain; also called His9-hMSR1; His-hMSR1
T1 sequence: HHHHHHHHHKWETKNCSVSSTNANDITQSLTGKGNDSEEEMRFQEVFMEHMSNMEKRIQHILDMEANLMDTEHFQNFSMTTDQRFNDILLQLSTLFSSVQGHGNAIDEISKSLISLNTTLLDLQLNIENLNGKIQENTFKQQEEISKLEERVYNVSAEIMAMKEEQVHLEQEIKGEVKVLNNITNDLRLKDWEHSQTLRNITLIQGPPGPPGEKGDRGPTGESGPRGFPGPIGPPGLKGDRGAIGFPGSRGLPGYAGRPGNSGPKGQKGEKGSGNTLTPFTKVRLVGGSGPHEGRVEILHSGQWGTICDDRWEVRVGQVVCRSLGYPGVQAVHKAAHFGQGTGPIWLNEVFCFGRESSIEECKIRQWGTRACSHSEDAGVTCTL
Method: (§1) Buffer alone was also added to wells on each coat. […] This assay was conducted in four different assay runs.
(§2) Data analysis was performed using a sigmoidal dose-response model within Prism™ software (GraphPad).

[2] = biological target: T1, human MSR1 extracellular domain …; assay: competition ELISA, plate-coated His9-hMSR1; 300 nM antibody, competitor ligand biot-AGE-BSA
Method: as §1, §2

[3] = biological target: T1, human MSR1 extracellular domain …; assay: competition ELISA, plate-coated His9-hMSR1; 1 µM antibody, competitor ligand 10 nM Ox-LDL
Method: as §1, §2

[4] = biological target: T2, human MSR1 extracellular domain expressed with a N-terminal nonahistidine tag (His9-hMSR1); R&D Systems, Cat … (human, UniProt P21757 77-451); assay: SPR Biacore, 25 C, antibody captured;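 also: rates from 1:1 fit with mass transport limitation of real-time sensorgrams, HEPES-buffered saline with EDTA and Tween-20 at pH 7.4, KD and t½ derived from the kinetic rates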
T2 construct: extracellular domain; also called His-hMSR1; 9xHis-hMSR1; not shown: N-terminal nonahistidine tag
T2 sequence (looked up): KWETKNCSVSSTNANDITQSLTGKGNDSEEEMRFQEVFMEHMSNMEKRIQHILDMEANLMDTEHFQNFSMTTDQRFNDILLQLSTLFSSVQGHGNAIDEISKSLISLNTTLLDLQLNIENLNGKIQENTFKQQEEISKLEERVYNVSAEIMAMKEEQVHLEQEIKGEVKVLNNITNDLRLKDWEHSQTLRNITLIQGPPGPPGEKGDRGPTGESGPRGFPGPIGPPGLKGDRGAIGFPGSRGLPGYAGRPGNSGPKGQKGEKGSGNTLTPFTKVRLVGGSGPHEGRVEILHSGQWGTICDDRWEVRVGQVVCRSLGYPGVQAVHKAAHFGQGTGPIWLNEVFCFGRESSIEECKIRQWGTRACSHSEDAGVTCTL

[5] = biological target: T3, monkey MSR1 extracellular domain expressed with a N-terminal hexahistidine-myc-myc tag (HMM-mfMSR1) (monkey (Macaca fascicularis)); assay: SPR Biacore, 25 C, antibody captured;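 also: rates from 1:1 fit with mass transport limitation of real-time sensorgrams, HEPES-buffered saline with EDTA and Tween-20 at pH 7.4, KD and t½ derived from the kinetic rates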
T3 chain: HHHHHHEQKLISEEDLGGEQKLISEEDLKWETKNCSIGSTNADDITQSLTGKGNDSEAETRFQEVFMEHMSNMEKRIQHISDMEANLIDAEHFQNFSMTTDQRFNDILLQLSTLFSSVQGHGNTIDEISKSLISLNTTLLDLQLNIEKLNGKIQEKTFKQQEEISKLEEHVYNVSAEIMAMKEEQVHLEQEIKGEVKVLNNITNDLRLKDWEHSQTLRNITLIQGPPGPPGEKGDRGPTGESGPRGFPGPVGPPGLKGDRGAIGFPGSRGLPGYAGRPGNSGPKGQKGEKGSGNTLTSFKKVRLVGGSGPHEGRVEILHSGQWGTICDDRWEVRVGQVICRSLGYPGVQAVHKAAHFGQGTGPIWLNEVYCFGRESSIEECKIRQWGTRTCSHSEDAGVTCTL
Method: (§3) Binding affinities and kinetic constants of human anti-MSR1 antibodies for different MSR1 reagents were determined by real-time surface plasmon resonance (Biacore 4000). All binding studies were performed in 10 mM HEPES, 150 mM NaCl, 3 mM EDTA, and 0.05% v/v Surfactant Tween-20, pH 7.4 (HBS-ET) running buffer at 25° C. and 37° C.
(§4) The association rate (kₐ) and dissociation rate (kd) were determined by fitting the real-time binding sensorgrams to a 1:1 binding model with mass transport limitation using Scrubber 2.0c curve-fitting software. Binding dissociation equilibrium constant (KD) and dissociative half-life (t½) were calculated from the kinetic rates as:

[6] = biological target: T2, human MSR1 extracellular domain …; assay: SPR Biacore, 37 C, antibody captured
Method: as §3, §4

[7] = biological target: T3, monkey MSR1 extracellular domain …; assay: SPR Biacore, 37 C, antibody captured
Method: as §3, §4

[8] = biological target: T4, mouse MSR1 extracellular domain expressed with a N-terminal nonahistidine tag (His9-mMSR1); R&D Systems, Cat … (mouse, UniProt P30204 79-458); assay: BLI Octet, 25 C, antibody captured
T4 construct: extracellular domain; not shown: N-terminal nonahistidine tag
T4 sequence (looked up): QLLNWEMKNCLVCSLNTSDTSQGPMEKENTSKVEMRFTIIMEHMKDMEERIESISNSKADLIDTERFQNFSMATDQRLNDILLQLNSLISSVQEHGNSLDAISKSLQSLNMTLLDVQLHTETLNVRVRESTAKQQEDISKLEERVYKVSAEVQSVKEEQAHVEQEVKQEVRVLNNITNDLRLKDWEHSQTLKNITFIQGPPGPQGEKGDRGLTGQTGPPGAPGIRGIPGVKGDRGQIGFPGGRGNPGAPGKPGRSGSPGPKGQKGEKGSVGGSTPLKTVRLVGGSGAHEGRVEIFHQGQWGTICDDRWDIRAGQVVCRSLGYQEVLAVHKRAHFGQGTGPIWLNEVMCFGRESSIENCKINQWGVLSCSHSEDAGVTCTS

% Blocking [1]: -61%
% Blocking [2]: -9%
% Blocking [3]: -60%
B1: H1H27732P-N297Q (antibody, V domains shown)
VH: QLQLQESGPGLVKPSETLSLTCTVSGGSISSSTYYWGWIRQPPGKGLEWIGSFYYSGSTYYNPSLKSRVTISVGTSKNQFSLKLSSVTAADTAVYFCARGGLLGRPFVIWGQGTMVTVSS
VL: DIQMTQSPSSLSASVGDRVTITCRASQGIRNDLGWYQQKPGKAPKRLIYAASSLQSGVPSRFSGSGSGTEFTLTISSLQPEDFATYYCLQHNSYPLTFGGGTKVEIKR
notes: Human IgG1 Fc with N297Q

% Blocking [1]: 8%
% Blocking [2]: 15%
% Blocking [3]: 36%
B2: H1H27729P-N297Q (antibody, V domains shown)
VH: QVQLVESGGGLVKPGGSLRLSCAASGFIFSDYYMSWIRQAPGKGLEWVSYISSSGTTIYGDSVKGRFTMSRDNAKNSLYLQMNSLRAEDTAVYYCARNYALFDYWGQGTLVTVSS
VL: DIQMTQSPSSLSASVGDRVTITCQASQDISKYLNWYQQKPGKAPKLLIYYTSNLETGVPSRFSGSGSGTDFTFTISSLQPEDIATYYCHQSDYLPFTFGPGTKVDIKR
notes: Human IgG1 Fc with N297Q

% Blocking [2]: 1%
% Blocking [3]: 2%
B3: H1H27773P2-N297Q (antibody, human IgG1, V domains shown)
VH: EVQLVESGGGLVQPGGSLRLSCAASGFTFSSYAMNWVRQAPGKGLEWVSAISGSGDSTYYADSVKGRFTISRDNSRTTLSLQLNSLRAEDTAVYYCAKDRLLWFGELGSPFHYWGQGTLVTVSS
VL: not shown
notes: Human IgG1 Fc with N297Q; also called H1H27773P-N297Q

% Blocking [1]: -41%
% Blocking [2]: 4%
% Blocking [3]: -1%
B4: H1H27731P-N297Q (antibody, V domains shown)
VH: QLQLQESGPGLVKPSETLSLTCTVSGGSISRISYYWGWIRQPPGKGLEWIGSIYDSGSTYYNPSLKSRVTISIDTSKNQFSLKLSSVTAADTAVYYCVRYSSSSAFAFDYWGQGTLVTVSS
VL: DIQMTQSPSSVSASVGDRVTITCRASQGISSWLAWYQQKPGKAPKLLIYAASSLQSGVPSRFSGSGSGTDFTLTISSLQPEDFATYYCQQANSFPFTFGPGTKVDIKR
notes: Human IgG1 Fc with N297Q

% Blocking [1]: -42%
% Blocking [2]: -9%
% Blocking [3]: -44%
B5: H1H27754P-N297Q (antibody, V domains shown)
VH: EVQLVESGGGLVQPGGSLRLSCAASGFTFRTYAMTWVRQAPGKGLDWVSAITGDGGNTYYADSVKGRFTISRDNSKNTLYLQMNSLRAEDTAIYYCAKDQRFSFALYYFDYWGQGTLVTVSS
VL: B4 VL with K42N, S52F, S93N, F96W, P100Q, D105E
notes: Human IgG1 Fc with N297Q

% Blocking [1]: -44%
% Blocking [2]: -2%
% Blocking [3]: -31%
B6: H1H27747P-N297Q (antibody, V domains shown)
VH: QVQLVESGGAVVQPGRSLRLSCAASGFTFSYYGMHWVRQAPGKGLEWVAVISYDGSKKYYADSVKGRFTISRDNSKNTLYLQMNSLRAEDTAVYYCAKDLTVDFYYGMDVWGQGTTVTVSS
VL: B4 VL with A51T, V58A, Y87F, F96Y, P100Q, V104L, D105E
notes: Human IgG1 Fc with N297Q

% Blocking [1]: 52%
% Blocking [2]: 27%
% Blocking [3]: 54%
B7: H1H27766P2-N297Q (antibody, V domains shown)
VH: EVQLVESGGGLVQPGGSLRLSCAASGFTFSSFAMSWVRQAPGKELEWVSSISGRGGSTYYADSVRGRFTISRDNSKITLYLQMNSLRAEDTAVYYCAKDIVFRYTSSAYWYFDLWGRGTLVTVSS
VL: not shown
notes: Human IgG1 Fc with N297Q; also called H1H27766P-N297Q

Kd [4]: 0.0796 nM
koff [4]: 1.86e-05 s⁻¹
kon [4]: 234000 M⁻¹ s⁻¹
t½ [4]: 10.3 h
Kd [5]: 0.506 nM
koff [5]: 7.94e-05 s⁻¹
kon [5]: 157000 M⁻¹ s⁻¹
t½ [5]: 2.42 h
Kd [6]: 0.227 nM
koff [6]: 7.72e-05 s⁻¹
kon [6]: 340000 M⁻¹ s⁻¹
t½ [6]: 2.5 h
Kd [7]: 1.72 nM
koff [7]: 0.000589 s⁻¹
kon [7]: 343000 M⁻¹ s⁻¹
t½ [7]: 0.333 h
binding result [8]: no binding (tested: 50 nM)
B8: H1H27766P-N297Q (antibody, V domains shown)
VH: B7 VH
VL: not shown
notes: Human IgG1 Fc with N297Q; tied by the numerical identifier; also called H1H27766P2-N297Q; H1H27766P2

% Blocking [1]: -38%
% Blocking [2]: -4%
% Blocking [3]: -15%
B9: H1H27734P-N297Q (antibody, V domains shown)
VH: EVQLVESRGGLVQPGGSLRLSCAASGFTFSSYAMSWVRQAPGKGLEWVSAISGSGGSTFYADSVKGRFTISRDNSKNTVYLQMNSLRAEDTAVYYCAKALVLRFLEWLGDYWGQGTLVTVSS
VL: DIQMTQSPSTLSASVGDRVTITCRASQSISSWLAWFQQKPGKAPKLLIYKASSLESGVPSRFSGSGSGTEFTLTISSLQPDDFATYYCQQYKSYWTFGQGTKVEIKR
notes: Human IgG1 Fc with N297Q

% Blocking [1]: -51%
% Blocking [2]: -1%
% Blocking [3]: -21%
B10: H1H27749P-N297Q (antibody, V domains shown)
VH: QVQLQESGPGLVKPSETLSLTCTVSDGSISSYYWSWIRQPPGRGLEWIGFIYYSGSTSYNPSLKSRVTISVDTSMSQFSLKLRSVTAADTAVYYCARGSPFDYWGPGTLVTVSS
VL: EIVLTQSPGTLSLSPGERATLSCRASQSVSSSYLAWYQQRPGQAPSLLISGASRRATGIPDRFSGSGSGTDFTLTIRRLEPEDFAMYYCQQYGSSPPTFGGGTKVEIKR
notes: Human IgG1 Fc with N297Q

% Blocking [1]: -51%
% Blocking [2]: -11%
% Blocking [3]: -31%
B11: H1H27751P-N297Q (antibody, V domains shown)
VH: EVQLVESGGGLVQPGGSLRLSCAASGFTFSNYAMHWVRQAPGKGLEYVSAISSNGGSTYYADSVKGRITISRDNSKNTLYLQMGSLRAEDMAVYYCARGRPYYYYFGMDVWGQGTTVTVSS
VL: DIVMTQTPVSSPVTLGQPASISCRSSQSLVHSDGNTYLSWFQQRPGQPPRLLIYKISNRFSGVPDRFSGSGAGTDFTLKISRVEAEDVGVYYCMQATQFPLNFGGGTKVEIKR
notes: Human IgG1 Fc with N297Q

% Blocking [1]: -47%
% Blocking [2]: -9%
% Blocking [3]: -41%
B12: H1H27739P-N297Q (antibody, V domains shown)
VH: EVQLVESGGGLVQPGGSLRLSCTASGFTFSSYAMSWVRQAPGKGLEWVSAISGTGSSTYFTDSVKGRFAISRDNSKNTLYLQMNSLRAEDTAVYYCAKDGEWLSTVTLFDYWGQGTLVTVSS
VL: EIVMTQSPATLSVSPGERATLSCRASQSVSSNLAWYQQKPGQAPRLLIYGASTRATGIPARFSGSGSGTDFTLTISSLQSEDFALYYCQQYFIWPPHPTFGPGTKVDIKR
notes: Human IgG1 Fc with N297Q

% Blocking [1]: -31%
% Blocking [2]: -3%
% Blocking [3]: 3%
B13: H1H27736P-N297Q (antibody, V domains shown)
VH: EVQLVESGGGLVQPGGSLRLSCAASGFTFSSYAMSWVRQAPGKGLEWVSSISGSGDSTFYTDSVKGRFTISRDISKNTLYLQMNSLRAEDTAVYYCAKDRLLWFGDLISPFHYWGQGTLVTVSS
VL: EIVLTQSPGTLSLSPGERATLSCRASQSVSNIYLAWYQQKPAQAPRLLIYGASSRATGIPDRFSVSGSGTDFTLTISRLEPEDFAVYYCQQYGSSPRTFGQGTKVEIKR
notes: Human IgG1 Fc with N297Q
